The results in this text go back to PMC12915166 (2025).

Assay [1] concerns the target T1, HA-2 (HA-2V allele), encoded by MYO1G peptide on HLA-A*02:01 (human).
T1 peptide: YIGEVLVSV

The target in assay [2] is T2, HA-1 (HA-1H allele), encoded by ARHGAP45 peptide on HLA-A*02:06 (human).
T2 peptide: VLHDDLLEA
Put plainly: activation reporter or marker.

B1: anti-HA-2V TCR clone 7 (TCR)
alpha TRAV21 TRAJ42 CDR3: AVRSGYGGSQGNL
beta TRBV7-8 TRBJ2-5 CDR3: ASSLAGGSLQETQY
Take B1: the EC50 of peptide in assay [1] was found to be 0.7 nM.

B2: anti-HA-2V TCR clone 6 (TCR)
alpha TRAV38-2DV8 TRAJ34 CDR3: AYRRFYNTDKLI
beta TRBV19 TRBJ1-1 CDR3: ASRSAGYAEAF
In turn, B2 had an EC50 of peptide in assay [1] of 21 nM.

B3: anti-HA-1H TCR clone 7 (TCR)
alpha TRAV3 TRAJ40 CDR3: AVRAPTSGTYKYI
beta TRBV7-9 TRBJ2-1 CDR3: ASSLVSGNEQF
B3: the binding result in assay [2] is “recognises”.
